Measurements published in PMC8254080 (Biochemistry and Biophysics Reports, 2021).
Read-outs that look alike come from different tables or passages of the source.

B1: Shigella MxiH (type 3 needle filament protomer) with N-terminal Strep-tag II and factor Xa cleavage site (natural protein, UniProt P0A223 1-83, looked up)
chain: MSVTVPNDDWTLSSLSETFDDGTQTLQGELTLALDKLAKNPSNPQLLAEYQSKLSEYTLYRNAQSNTVKVIKDVDAAIIQNFR
B2: Salmonella PrgI (type 3 needle filament protomer, SPI-1) (natural protein, Salmonella (strain SB905))
chain: MATPWSGYLDDVSAKFDTGVDNLQTQVTEALDKLAAKPSDPALLAAYQSKLSEYNLYRNAQSNTVKVFKDIDAAIIQNFR

Experiments:
cryo-EM structure [1] = target: the molecule itself; experiment: cryo-EM structure
cryo-EM structure [2] = target: the molecule itself; experiment: cryo-EM structure; remark: listed apart in the source

| Protein | binding result (cryo-EM structure [1]) | binding result (cryo-EM structure [2]) |
| --- | --- | --- |
| B1 | binds |  |
| B2 |  | binds |
